Reference: patent US10450368 (DUKE UNIVERSITY, dated 2019)

Assays:
CH505.TF mutant gp120 M8 = target: T1, CH505.TF mutant gp120 M8 (HIV-1); assay: direct-binding ELISA (OD450), panel 'CH505.TF gp120 M8'
T1 construct: domain: gp120

SSA [1] = target: T2, SSA; assay: AtheNA, Ab 6.25 ug/ml
T2 construct: also called SSA (Ro)
Excerpt: (§1) AtheNA Multi-Lyte ANA Plus Test System is one such assay. This is luminex-based assay, which is also used to screen patient sera.

Sm (Smith antigen) [2] = target: T3, Sm (Smith antigen); assay: AtheNA, Ab 6.25 ug/ml
T3 construct: Protein complex
Excerpt: as §1

[3] = target: T4, HIV-1 CH505 transmitted/founder gp120 Env (HIV-1); assay: competition ELISA, blocking of CH106 binding to gp120
T4 construct: domain: gp120; also called CH505.TF gp120; CH505 TF gp120 Env

SSB [4] = target: T5, SSB (UniProt P05455 1-408); assay: AtheNA, Ab 25 ug/ml
T5 sequence: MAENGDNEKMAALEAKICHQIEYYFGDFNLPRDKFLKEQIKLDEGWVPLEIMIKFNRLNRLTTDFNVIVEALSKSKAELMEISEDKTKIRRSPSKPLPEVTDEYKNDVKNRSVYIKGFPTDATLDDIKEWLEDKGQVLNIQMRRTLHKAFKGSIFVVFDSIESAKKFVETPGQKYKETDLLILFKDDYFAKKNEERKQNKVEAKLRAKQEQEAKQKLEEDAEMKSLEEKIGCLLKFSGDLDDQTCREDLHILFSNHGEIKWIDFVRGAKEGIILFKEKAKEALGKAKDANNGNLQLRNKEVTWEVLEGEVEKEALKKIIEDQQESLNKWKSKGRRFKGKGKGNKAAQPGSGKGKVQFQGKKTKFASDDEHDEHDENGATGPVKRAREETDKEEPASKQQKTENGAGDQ

SSA [5] = target: T2, SSA; assay: AtheNA, Ab 25 ug/ml
Sm (Smith antigen) [6] = target: T3, Sm (Smith antigen); assay: AtheNA, Ab 25 ug/ml
[7] = target: T4, HIV-1 CH505 transmitted/founder gp120 …; assay: competition ELISA, blocking of sCD4 binding to gp120
SSB [8] = target: T5, SSB; assay: AtheNA, Ab 6.25 ug/ml
Scl-70 [9] = target: T6, Scl-70 (UniProt P11387 1-765); assay: AtheNA, Ab 6.25 ug/ml
T6 sequence: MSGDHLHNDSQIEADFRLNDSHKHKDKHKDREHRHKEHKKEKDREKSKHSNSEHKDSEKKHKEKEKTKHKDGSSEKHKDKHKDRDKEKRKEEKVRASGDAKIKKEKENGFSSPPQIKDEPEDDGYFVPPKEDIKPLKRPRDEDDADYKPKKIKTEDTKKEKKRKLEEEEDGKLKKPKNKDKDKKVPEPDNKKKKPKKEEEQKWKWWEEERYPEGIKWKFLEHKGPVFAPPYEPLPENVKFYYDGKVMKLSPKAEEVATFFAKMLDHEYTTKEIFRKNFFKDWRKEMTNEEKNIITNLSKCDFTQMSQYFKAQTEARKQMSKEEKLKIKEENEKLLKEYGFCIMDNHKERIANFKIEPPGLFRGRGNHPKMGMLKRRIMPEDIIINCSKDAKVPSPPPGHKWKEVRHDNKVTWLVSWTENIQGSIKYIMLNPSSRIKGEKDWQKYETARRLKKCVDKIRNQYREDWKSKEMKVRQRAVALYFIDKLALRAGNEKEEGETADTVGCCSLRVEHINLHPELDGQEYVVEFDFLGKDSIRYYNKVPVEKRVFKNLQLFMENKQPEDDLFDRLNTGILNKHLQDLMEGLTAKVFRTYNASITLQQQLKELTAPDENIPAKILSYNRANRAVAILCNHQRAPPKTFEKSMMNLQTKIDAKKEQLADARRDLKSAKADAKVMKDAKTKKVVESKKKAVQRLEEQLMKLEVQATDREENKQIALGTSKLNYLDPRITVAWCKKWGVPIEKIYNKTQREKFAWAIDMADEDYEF

Jo-1 [10] = target: T7, Jo-1 (UniProt P12081 1-509); assay: AtheNA, Ab 6.25 ug/ml
T7 sequence: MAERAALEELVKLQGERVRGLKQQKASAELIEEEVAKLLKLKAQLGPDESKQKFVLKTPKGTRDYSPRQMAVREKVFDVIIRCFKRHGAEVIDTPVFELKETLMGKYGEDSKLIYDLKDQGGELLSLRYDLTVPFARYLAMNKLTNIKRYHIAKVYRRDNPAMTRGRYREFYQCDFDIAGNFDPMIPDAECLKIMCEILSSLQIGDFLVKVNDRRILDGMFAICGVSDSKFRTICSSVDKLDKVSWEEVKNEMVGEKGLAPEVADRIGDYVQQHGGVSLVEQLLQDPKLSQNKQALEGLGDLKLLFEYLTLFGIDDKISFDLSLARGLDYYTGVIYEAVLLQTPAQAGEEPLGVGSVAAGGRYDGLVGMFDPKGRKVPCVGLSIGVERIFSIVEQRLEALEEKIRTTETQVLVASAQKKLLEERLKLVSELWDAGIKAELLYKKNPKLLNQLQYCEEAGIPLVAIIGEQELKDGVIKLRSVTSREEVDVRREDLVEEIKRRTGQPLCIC

SSA [11] = target: T2, SSA; assay: AtheNA, Ab 6.25 ug/ml; remark: listed apart in the source
RNP (ribonucleoprotein) [12] = target: T8, RNP (ribonucleoprotein); assay: AtheNA, Ab 6.25 ug/ml
T8 construct: Protein-RNA complex

Sm (Smith antigen) [13] = target: T3, Sm (Smith antigen); assay: AtheNA, Ab 6.25 ug/ml; remark: listed apart in the source
Histones [14] = target: T9, Histones; assay: AtheNA, Ab 6.25 ug/ml
T9 construct: Mixture of proteins

SSB [15] = target: T5, SSB; assay: AtheNA, Ab 12.5 ug/ml
Scl-70 [16] = target: T6, Scl-70; assay: AtheNA, Ab 12.5 ug/ml
Jo-1 [17] = target: T7, Jo-1; assay: AtheNA, Ab 12.5 ug/ml
SSA [18] = target: T2, SSA; assay: AtheNA, Ab 12.5 ug/ml
RNP (ribonucleoprotein) [19] = target: T8, RNP (ribonucleoprotein); assay: AtheNA, Ab 12.5 ug/ml
Sm (Smith antigen) [20] = target: T3, Sm (Smith antigen); assay: AtheNA, Ab 12.5 ug/ml
Histones [21] = target: T9, Histones; assay: AtheNA, Ab 12.5 ug/ml

B1: CH493 (antibody, V domains shown)
VH: QVRLLQYGGGVKRPGASMTISCVASGYNFNDYYIHWVRQAPGQGLELMGWIDPSGGRTDYAGAFGDRVSMYRDKSMNTLYMDLRSLRSGDTAMYYCVRNVGTAGSLLHYDHWGLGVMVTVSS
VL: EIVLTQSPATLSVSPGERVTLSCRASQSVRNNLAWYRQKRGQAPRLLIYGASTRATGIPARFSGSGSGTEFTLTISSMQSEDFAVYYCQQYNNWWTFGQGTKVEIK
notes: also called CH235.9; DH493
Question: Which results are given for B1?
Answer: EC50 (read off the curve) (CH505.TF mutant gp120 M8): ~2 µg/mL; AtheNA signal (SSA [1]): 22; AtheNA signal (Sm (Smith antigen) [2]): 46

B2: CH241 (antibody, V domains shown)
VH: QVQLVQSGAAVKKPGASVRVSCKASGYTFTSSHIHWVRQAPGQGPEWMGMIDPSVGRPTTAGKFQGRVTMTRDRYTSTAYMDLSSLRSEDTAVYYCARSVETTGSLLYFDYWGQGTLITVSS
VL: EIVLTQSPATLSVSPGERATLSCRASQSVRSNIAWYQQKPGQAPRLLIHGASTRATGIPGRFSGSGSGPEFTLAISSVQSEDFAVYYCQQYNDWWTFGQGTKVEIK
Question: Which IC50 [3] does the source give for B2 here?
Answer: 1.5 µg/mL

Question: And the AtheNA signal (SSB [4])?
Answer: 6 relative luminescence units

Question: And the AtheNA signal (SSA [5])?
Answer: 15 relative luminescence units

Question: What about the AtheNA signal (Sm (Smith antigen) [6]) of the same binder?
Answer: 11 relative luminescence units

Question: And the IC50 [7]?
Answer: 2.6 µg/mL

Question: What about the AtheNA signal (SSB [8]) of the same binder?
Answer: 4 relative luminescence units

Question: What about the AtheNA signal (Scl-70 [9]) of the same binder?
Answer: 1 relative luminescence units

Question: And the AtheNA signal (Jo-1 [10])?
Answer: 2 relative luminescence units

Question: What about the AtheNA signal (SSA [11]) of the same binder?
Answer: 15 relative luminescence units

Question: What about the AtheNA signal (RNP (ribonucleoprotein) [12]) of the same binder?
Answer: 3 relative luminescence units

Question: And the AtheNA signal (Sm (Smith antigen) [13])?
Answer: 4 relative luminescence units

Question: And the AtheNA signal (Histones [14])?
Answer: 9 relative luminescence units

Question: What about the AtheNA signal (SSB [15]) of the same binder?
Answer: 8 relative luminescence units

Question: And the AtheNA signal (Scl-70 [16])?
Answer: 3 relative luminescence units

Question: What about the AtheNA signal (Jo-1 [17]) of the same binder?
Answer: 6 relative luminescence units

Question: What about the AtheNA signal (SSA [18]) of the same binder?
Answer: 14 relative luminescence units

Question: What about the AtheNA signal (RNP (ribonucleoprotein) [19]) of the same binder?
Answer: 5 relative luminescence units

Question: What about the AtheNA signal (Sm (Smith antigen) [20]) of the same binder?
Answer: 7 relative luminescence units

Question: What about the AtheNA signal (Histones [21]) of the same binder?
Answer: 13 relative luminescence units

B3: CH235 (antibody, V domains shown)
VH: QVQLVQSGAEVKKPGASVTVSCQASGYTFTNYYVHWVRQAPGQGLQLMGWIDPSWGRTNYAQNFQGRITMTRDTSTSTVYMEMRSLRSEDTAVYYCARNVATEGSLLHYDYWGQGTLVTVSA
VL: EIVLTQSPATLSVSPGERATLSCRASQSVRSNLAWYQQRPGQAPRLLIYGTSTRATGVPARFSGRGSGTEFTLAISSMQSEDFAVYLCLQYNNWWTFGQGTKVEIK
notes: also called CH235_4A
Question: With B3 as the binder, how does the IC50 [3] read?
Answer: 16.5 µg/mL

Question: And the AtheNA signal (SSB [4])?
Answer: 5 relative luminescence units

Question: What about the AtheNA signal (SSA [5]) of the same binder?
Answer: 13 relative luminescence units

Question: What about the AtheNA signal (Sm (Smith antigen) [6]) of the same binder?
Answer: 7 relative luminescence units

Question: And the IC50 [7]?
Answer: 26.3 µg/mL

Question: What about the AtheNA signal (SSB [8]) of the same binder?
Answer: 6 relative luminescence units

Question: And the AtheNA signal (Scl-70 [9])?
Answer: 2 relative luminescence units

Question: And the AtheNA signal (Jo-1 [10])?
Answer: 2 relative luminescence units

Question: And the AtheNA signal (SSA [11])?
Answer: 12 relative luminescence units

Question: And the AtheNA signal (RNP (ribonucleoprotein) [12])?
Answer: 3 relative luminescence units

Question: What about the AtheNA signal (Sm (Smith antigen) [13]) of the same binder?
Answer: 5 relative luminescence units

Question: And the AtheNA signal (Histones [14])?
Answer: 5 relative luminescence units

Question: What about the AtheNA signal (SSB [15]) of the same binder?
Answer: 5 relative luminescence units

Question: What about the AtheNA signal (Scl-70 [16]) of the same binder?
Answer: 2 relative luminescence units

Question: And the AtheNA signal (Jo-1 [17])?
Answer: 3 relative luminescence units

Question: What about the AtheNA signal (SSA [18]) of the same binder?
Answer: 13 relative luminescence units

Question: What about the AtheNA signal (RNP (ribonucleoprotein) [19]) of the same binder?
Answer: 6 relative luminescence units

Question: And the AtheNA signal (Sm (Smith antigen) [20])?
Answer: 8 relative luminescence units

Question: And the AtheNA signal (Histones [21])?
Answer: 5 relative luminescence units
